From publication PMC12187637 come the findings set out here.

Assay [1] concerns the target GFP-tagged ADP-ribosylation-deficient NuMA, NuMA^PARmut construct (UniProt Q14980). Put plainly: co-IP; GFP-trap magnetic beads on whole-cell extracts (NP-40 lysis buffer with BaseMuncher endonuclease and ADP-HPD) of cells transfected with GFP-NuMA and co-transfected with myc-TDP1, untreated or treated with 10 uM H2O2 for 10 min on ice in the dark; 2 h at 4°C; immunoblot; three biological replicates.

Assay [2] has the same target. Put plainly: co-IP; GFP-trap magnetic beads on the chromatin fraction of cells co-transfected with myc-TDP1 and treated with 10 uM H2O2 for 10 min on ice in the dark; immunoblot; three biological replicates. (In western blotting, separated proteins are transferred to a membrane and probed.)

Chain of UniProt Q14980 (Q14980 other isoform, or with tags, fused parts or gaps, change not shown): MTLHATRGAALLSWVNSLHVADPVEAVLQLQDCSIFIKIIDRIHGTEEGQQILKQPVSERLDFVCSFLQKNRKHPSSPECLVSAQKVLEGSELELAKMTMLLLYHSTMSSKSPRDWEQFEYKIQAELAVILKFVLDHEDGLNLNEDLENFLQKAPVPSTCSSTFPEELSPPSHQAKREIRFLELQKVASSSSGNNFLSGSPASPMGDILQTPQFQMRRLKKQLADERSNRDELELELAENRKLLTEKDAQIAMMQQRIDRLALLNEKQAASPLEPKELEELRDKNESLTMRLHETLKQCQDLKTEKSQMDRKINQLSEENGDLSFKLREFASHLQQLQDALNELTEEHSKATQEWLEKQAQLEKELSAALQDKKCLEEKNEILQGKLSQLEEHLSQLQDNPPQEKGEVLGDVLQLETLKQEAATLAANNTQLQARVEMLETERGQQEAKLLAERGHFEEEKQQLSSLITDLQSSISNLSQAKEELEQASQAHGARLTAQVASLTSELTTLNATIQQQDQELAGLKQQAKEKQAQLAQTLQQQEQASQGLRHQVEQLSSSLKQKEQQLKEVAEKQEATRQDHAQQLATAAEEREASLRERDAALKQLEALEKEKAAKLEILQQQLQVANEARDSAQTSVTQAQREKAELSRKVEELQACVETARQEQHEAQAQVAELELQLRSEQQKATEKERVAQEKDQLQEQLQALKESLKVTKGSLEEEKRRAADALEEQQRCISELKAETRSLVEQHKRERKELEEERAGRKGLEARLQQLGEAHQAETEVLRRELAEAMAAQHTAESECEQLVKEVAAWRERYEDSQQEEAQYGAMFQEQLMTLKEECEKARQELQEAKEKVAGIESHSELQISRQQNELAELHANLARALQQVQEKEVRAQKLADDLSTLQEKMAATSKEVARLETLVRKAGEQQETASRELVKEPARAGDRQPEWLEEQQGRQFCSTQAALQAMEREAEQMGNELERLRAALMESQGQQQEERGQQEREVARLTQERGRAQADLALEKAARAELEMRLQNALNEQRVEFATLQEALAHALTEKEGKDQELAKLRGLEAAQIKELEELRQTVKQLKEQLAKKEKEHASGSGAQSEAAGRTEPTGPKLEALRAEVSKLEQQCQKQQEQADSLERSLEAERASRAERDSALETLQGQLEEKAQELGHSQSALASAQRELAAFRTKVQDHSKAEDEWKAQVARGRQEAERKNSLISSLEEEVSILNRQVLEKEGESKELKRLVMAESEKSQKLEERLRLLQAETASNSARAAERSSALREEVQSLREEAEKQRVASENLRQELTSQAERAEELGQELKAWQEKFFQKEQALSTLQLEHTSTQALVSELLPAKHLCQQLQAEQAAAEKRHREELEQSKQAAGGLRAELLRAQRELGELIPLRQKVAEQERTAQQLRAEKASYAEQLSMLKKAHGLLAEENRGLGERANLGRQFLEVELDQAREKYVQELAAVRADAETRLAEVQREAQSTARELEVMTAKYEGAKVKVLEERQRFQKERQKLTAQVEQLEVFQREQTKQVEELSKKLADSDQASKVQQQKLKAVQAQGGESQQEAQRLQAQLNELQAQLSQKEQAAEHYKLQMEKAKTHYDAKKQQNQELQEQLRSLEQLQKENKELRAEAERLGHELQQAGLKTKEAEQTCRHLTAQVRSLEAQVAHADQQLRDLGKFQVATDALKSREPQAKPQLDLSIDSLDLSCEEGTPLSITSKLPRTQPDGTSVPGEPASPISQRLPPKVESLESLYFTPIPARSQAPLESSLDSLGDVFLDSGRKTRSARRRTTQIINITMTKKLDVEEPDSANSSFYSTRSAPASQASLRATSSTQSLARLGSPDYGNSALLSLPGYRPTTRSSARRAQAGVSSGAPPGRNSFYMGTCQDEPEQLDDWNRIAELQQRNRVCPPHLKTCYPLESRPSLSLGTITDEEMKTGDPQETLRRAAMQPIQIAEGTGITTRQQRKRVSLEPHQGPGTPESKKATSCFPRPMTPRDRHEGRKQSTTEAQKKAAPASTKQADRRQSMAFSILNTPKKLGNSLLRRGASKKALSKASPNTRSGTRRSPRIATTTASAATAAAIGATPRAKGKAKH

Regarding “myc-TDP1 (tyrosyl DNA phosphodiesterase 1) (from UniProt Q9NUW8 1-608) (enzyme)”, in assay [1], the percent decrease in interaction relative to NuMA^WT (H2O2-treated cells) lay in the range of 38 to 45% and the percent decrease in interaction relative to NuMA^WT (untreated cells) fell in the range of 38 to 45%. Moreover, the percent lower interaction than with NuMA^WT (chromatin fraction, H2O2-treated cells) in assay [2] was determined as 50%.
